Measurements published in publication PMC2361298, “Securin (hPTTG1) expression is regulated by β-catenin/TCF in human colorectal carcinoma”.

B1: securin-mutTBE (mt) (dsDNA)
DNA 1: ATAAATCACTGCCAAAGGATAGAATTT
DNA 2: AAATTCTATCCTTTGGCAGTGATTTAT
B2: securin-TBE (wt) (dsDNA)
DNA 1: ATAAATCACTATCAAAGGATAGAATTT
DNA 2: AAATTCTATCCTTTGATAGTGATTTAT

Biological target: GST-TCF-4 DBD (UniProt Q9NQB0 265-496)
Experiment: EMSA; EMSA, 0.5 ug GST-TCF-4 DBD or GST; buffer, salt, pH and temperature not stated (as in Hlubek et al 2004)
Conditions: protein: recombinant; tags: GST; label: end label (probe); blunt

Chain of GST-TCF-4 DBD (Q9NQB0 265-496): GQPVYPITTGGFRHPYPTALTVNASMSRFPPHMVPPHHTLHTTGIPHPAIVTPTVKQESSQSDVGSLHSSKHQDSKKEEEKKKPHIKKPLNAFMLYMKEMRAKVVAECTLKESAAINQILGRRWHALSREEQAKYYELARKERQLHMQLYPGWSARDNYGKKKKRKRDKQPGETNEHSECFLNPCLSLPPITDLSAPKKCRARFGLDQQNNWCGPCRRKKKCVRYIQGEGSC

Binder | binding result
B1 | no binding
B2 | binds
